Reference: patent US20170174789A1 (Regeneron, published 2017)

T1: hTie2-mFc (human)
T1 chain: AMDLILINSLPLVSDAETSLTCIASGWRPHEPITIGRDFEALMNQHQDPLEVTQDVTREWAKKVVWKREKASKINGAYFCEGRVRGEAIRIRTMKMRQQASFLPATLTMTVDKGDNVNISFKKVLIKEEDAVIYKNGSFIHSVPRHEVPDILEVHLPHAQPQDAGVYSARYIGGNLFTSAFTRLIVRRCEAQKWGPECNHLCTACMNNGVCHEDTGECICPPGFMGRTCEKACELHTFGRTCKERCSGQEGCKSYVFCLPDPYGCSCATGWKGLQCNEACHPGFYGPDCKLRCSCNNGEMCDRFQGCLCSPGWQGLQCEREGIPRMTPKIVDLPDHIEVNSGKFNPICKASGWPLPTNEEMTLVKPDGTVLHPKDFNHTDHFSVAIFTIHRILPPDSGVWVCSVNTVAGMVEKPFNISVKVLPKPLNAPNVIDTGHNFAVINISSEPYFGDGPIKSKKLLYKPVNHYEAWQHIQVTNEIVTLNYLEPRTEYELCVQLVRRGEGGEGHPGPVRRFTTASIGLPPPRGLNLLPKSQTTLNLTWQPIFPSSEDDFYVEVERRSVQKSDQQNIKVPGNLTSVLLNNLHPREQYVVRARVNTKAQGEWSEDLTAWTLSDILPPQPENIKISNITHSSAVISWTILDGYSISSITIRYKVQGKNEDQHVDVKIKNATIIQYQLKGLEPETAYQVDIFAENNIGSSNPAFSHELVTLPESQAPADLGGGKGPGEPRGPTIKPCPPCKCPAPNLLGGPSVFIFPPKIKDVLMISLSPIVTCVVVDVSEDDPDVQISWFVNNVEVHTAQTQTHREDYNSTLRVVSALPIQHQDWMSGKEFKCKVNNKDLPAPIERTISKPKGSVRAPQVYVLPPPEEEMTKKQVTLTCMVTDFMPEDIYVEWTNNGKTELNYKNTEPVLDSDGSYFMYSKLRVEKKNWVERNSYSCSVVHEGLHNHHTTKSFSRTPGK

B1: H1H2339B (antibody, V domains shown)
VH: EVQLVESGGGLVQPGGSLRLSCAASGFTFSSYAMNWVRQAPGKGLEWVSSISGSGGNTYYADSVKGRFTISRDNSKNTLYLQLNSLRAEDTAVYYCAKDHSLSWYRNVFDIWGQGTMVTVSS
VL: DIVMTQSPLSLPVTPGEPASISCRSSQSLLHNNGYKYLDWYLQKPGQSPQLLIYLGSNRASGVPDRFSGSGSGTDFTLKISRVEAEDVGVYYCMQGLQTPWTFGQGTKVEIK
notes: Tested as H1H2339B (human IgG format, H1H prefix)
B2: H1H2340B (antibody, V domains shown)
VH: EVQLVESGGGLVQPGGSLRLSCAASGFTFSRYWMSWVRQAPGMGLEWVANIKQDGSEKNYVDSVKGRFTVSRDNAKNSLYLQMNSLRAEDTAVYYCASAIFGVVITSYWGQGTLVTVSS
VL: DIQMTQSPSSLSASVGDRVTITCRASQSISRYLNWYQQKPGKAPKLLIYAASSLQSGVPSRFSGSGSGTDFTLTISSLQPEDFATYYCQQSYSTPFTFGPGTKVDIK
notes: Tested as H1H2340B (human IgG format, H1H prefix); also called HIH2340B

What was measured:
hTie2 (EGF) = target: T2, hTie2 (EGF) (human, UniProt Q02763 210-344); assay: Luminex bead binding
T2 construct: Domain-deletion construct linked to Luminex beads
Protocol: (§1) For binding, 25 μl of anti-Tie2 antibody (25 μg/ml) was added to 75 μl of the above created Luminex bead mixture (3×10³ beads per construct) in binding buffer (PBS, 0.05% Tween 20, 1 mg/ml BSA, 0.05% sodium azide) into a 96 well filter plate (Millipore). Incubation was at room temperature (RT) for 90 min or overnight at 4° C. with shaking. The beads were washed 3× with washing buffer (PBS+0.05% Tween 20) resuspended in 100 μl binding buffer containing PE (phycoerythrine)-labeled anti human kappa or PE-labeled anti mouse Fab secondary antibody and incubated at RT for 45 min with shaking. Samples were washed 2× more and binding signal (MFI) for each bead was determined using a Luminex L200 or FLEXMAP3D instrument. Bead linked human Tie2 was used as positive control and bead linked human Tie1 was used to measure family cross-reactivity. In general MFI signals greater than 500 units represent significant binding.

hTie2 (Ig1-Ig2-EGF) = target: T3, hTie2 (Ig1-Ig2-EGF) (human, UniProt Q02763 24-344); assay: Luminex bead binding
T3 construct: Domain-deletion construct; also used for H/D exchange
Protocol: as §1

hTie2 (Ig2-EGF) = target: T4, hTie2 (Ig2-EGF) (human, UniProt Q02763 121-344); assay: Luminex bead binding
T4 construct: Domain-deletion construct linked to Luminex beads
Protocol: as §1

[1] = target: hTie2 on 293-Tie2/SRE-Luc cells (human, UniProt Q02763 23-1124); assay: cell-based or functional assay
hTie2-mFc [2] = target: T1, hTie2-mFc; assay: SPR Biacore 37C, mAb captured
Protocol: (§2) (Tables 3-6). Measurements were conducted on a Biacore 2000 or T200 instrument.
(§3) For antibodies with a mouse constant region (designated H1M or H2M), antibodies were immobilized onto an anti-mouse Fc sensor surface and different concentrations of human, mouse or rat Tie2 constructs (hTie2-His, mTie2-hFc and rTie2-hFc) were injected over the antibody captured surface. For antibodies in the human IgG format (designated H1H or H4H), either an anti-human Fc sensor surface (hTie2-His and hTie2-mFc) or anti-human Fab sensor surface (mTie2-hFc and rTie2-hFc) was employed depending on the Tie-2 construct applied to the antibody captured surface. Amino acid sequences of the constructs used in this Example are as follows: hTie2-His (SEQ ID NO:2); hTie2-hFc (SEQ ID NO:3); hTie2-mFc (SEQ ID NO:4); rTie2-hFc (SEQ ID NO:5); and mTie2-hFc (SEQ ID NO:6).
(§4) Kinetic rate constants—association rate (ka) and dissociation rate (kd) were determined by fitting the real time binding sensorgrams to a 1:1 binding model with mass transport limitation using Scrubber 2.0 curve fitting software. The equilibrium dissociation constant (KD) and dissociative half-life (T½) were calculated from the kinetic rate constants as: KD (M)=kd/ka; and T½ (min)=(In2/(60*kd).).

hTie2-His = target: T5, hTie2-His (human, UniProt Q02763 23-745); assay: SPR Biacore 25C, mAb captured
T5 construct: also called ecto-Tie2 fused to 6xHis; biotin-Tie2-His
Protocol: as §2, §3, §4

hTie2-mFc [3] = target: T1, hTie2-mFc; assay: SPR Biacore 25C, mAb captured
Protocol: as §2, §3, §4

mTie2-hFc = target: T6, mTie2-hFc (mouse); assay: SPR Biacore 25C, mAb captured
T6 construct: also called mouse Tie2
Protocol: as §2, §3, §4

rTie2-hFc = target: T7, rTie2-hFc (rat); assay: SPR Biacore 25C, mAb captured
T7 construct: also called rat Tie2
Protocol: as §2, §3, §4

T7 sequence (chain, as listed by the source limits assumed): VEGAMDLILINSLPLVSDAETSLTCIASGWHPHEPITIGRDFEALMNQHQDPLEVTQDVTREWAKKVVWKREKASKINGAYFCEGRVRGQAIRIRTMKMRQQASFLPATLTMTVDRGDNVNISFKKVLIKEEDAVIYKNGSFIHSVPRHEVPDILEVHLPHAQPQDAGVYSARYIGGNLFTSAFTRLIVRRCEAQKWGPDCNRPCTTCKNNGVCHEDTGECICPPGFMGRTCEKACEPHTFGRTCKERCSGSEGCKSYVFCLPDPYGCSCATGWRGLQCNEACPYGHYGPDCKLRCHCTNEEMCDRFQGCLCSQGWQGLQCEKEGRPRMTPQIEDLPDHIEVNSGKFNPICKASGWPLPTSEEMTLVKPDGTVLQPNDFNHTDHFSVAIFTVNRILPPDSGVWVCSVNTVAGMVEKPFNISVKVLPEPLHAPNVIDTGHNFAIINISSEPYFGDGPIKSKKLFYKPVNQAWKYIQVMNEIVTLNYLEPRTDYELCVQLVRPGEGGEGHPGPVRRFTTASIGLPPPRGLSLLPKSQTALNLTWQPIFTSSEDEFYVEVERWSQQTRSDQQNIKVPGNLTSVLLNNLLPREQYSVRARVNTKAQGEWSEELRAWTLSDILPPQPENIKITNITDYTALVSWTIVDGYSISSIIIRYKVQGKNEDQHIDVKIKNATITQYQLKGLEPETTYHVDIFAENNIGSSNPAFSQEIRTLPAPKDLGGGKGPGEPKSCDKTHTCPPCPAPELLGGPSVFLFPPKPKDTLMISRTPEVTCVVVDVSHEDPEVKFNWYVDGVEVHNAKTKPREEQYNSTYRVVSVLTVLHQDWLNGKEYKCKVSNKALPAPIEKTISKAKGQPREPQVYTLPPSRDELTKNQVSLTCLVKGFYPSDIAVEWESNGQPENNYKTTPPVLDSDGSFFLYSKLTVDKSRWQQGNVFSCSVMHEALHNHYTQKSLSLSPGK
T4 sequence (Q02763 other isoform, or with tags, fused parts or gaps limits assumed): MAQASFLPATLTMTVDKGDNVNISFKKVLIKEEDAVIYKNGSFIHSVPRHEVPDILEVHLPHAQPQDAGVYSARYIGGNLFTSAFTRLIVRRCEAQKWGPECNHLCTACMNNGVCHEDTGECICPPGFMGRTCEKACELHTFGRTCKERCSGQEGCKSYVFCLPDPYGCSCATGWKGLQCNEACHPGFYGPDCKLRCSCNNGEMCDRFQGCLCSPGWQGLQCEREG
T2 sequence (Q02763 other isoform, or with tags, fused parts or gaps limits assumed): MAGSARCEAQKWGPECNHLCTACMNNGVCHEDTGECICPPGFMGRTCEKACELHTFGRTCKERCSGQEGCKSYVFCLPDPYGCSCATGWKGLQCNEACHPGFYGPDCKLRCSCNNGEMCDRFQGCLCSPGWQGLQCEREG

| Binder | binding result (hTie2 (EGF)) | binding result (hTie2 (Ig1-Ig2-EGF)) | binding result (hTie2 (Ig2-EGF)) | EC50, Tie2 dependent luciferase activity, 293-Tie2/SRE-Luc cells with 1 nM BowAng1 [1] [nM] | EC50, Tie2 dependent luciferase activity, 293-Tie2/SRE-Luc cells with 1 nM BowAng2 [1] [nM] | Kd (hTie2-mFc [2]) [nM] | T½ (hTie2-mFc [2]) [min] | koff (hTie2-mFc [2]) [s⁻¹] | kon (hTie2-mFc [2]) [M⁻¹ s⁻¹] | Kd (hTie2-His) [nM] | T½ (hTie2-His) [min] | koff (hTie2-His) [s⁻¹] | kon (hTie2-His) [M⁻¹ s⁻¹] | Kd (hTie2-mFc [3]) [nM] | T½ (hTie2-mFc [3]) [min] | koff (hTie2-mFc [3]) [s⁻¹] | kon (hTie2-mFc [3]) [M⁻¹ s⁻¹] | Kd (mTie2-hFc) [nM] | T½ (mTie2-hFc) [min] | koff (mTie2-hFc) [s⁻¹] | other results |
| --- | --- | --- | --- | --- | --- | --- | --- | --- | --- | --- | --- | --- | --- | --- | --- | --- | --- | --- | --- | --- | --- |
| B1 | no binding (tested: MFI >500 = significant binding) | no binding (tested: MFI >500 = significant binding) | no binding (tested: MFI >500 = significant binding) | 10.3 | 13 | 1.53 | 39 | 0.000295 | 193000 | 22.4 | 9 | 0.00125 | 55800 | 0.67 | 114 | 0.000102 | 151000 | 56.3 | 4 | 0.00263 | kon (mTie2-hFc): 46800 M⁻¹ s⁻¹; binding result (rTie2-hFc): no binding |
| B2 | no binding (tested: MFI >500 = significant binding) | no binding (tested: MFI >500 = significant binding) | no binding (tested: MFI >500 = significant binding) | 1.41 | 2.1 | 2.58 | 22 | 0.000515 | 200000 | 49.2 | 3 | 0.00345 | 70100 | 1.16 | 60 | 0.000191 | 165000 | 49.6 | 2 | 0.00672 | kon (mTie2-hFc): 136000 M⁻¹ s⁻¹; Kd (rTie2-hFc): 25.9 nM; T½ (rTie2-hFc): 3 min; koff (rTie2-hFc): 0.00371 s⁻¹; kon (rTie2-hFc): 143000 M⁻¹ s⁻¹ |
